# Test results taken from publication PMC4006906 (2014).
# Where two headings read alike, the source gives them in different places.
# What was measured:
# Assay in all cases: SPR
# [1] = target: T1, H5VN04 trimeric HA (recombinant hemagglutinin) (influenza A virus (H5VN04), UniProt Q6DQ33)
# [2] = target: T1, H5VN04 trimeric HA (recombinant …); remark: listed apart in the source
# [3] = target: T1, H5VN04 trimeric HA (recombinant …); remark: listed apart in the source
# [4] = target: T1, H5VN04 trimeric HA (recombinant …); remark: listed apart in the source
Binder,Kd [1],koff [2],koff [3],Kd [4]
"CR6261 Y98A scFv (scFv, V domains shown) VH: EVQLVESGAEVKKPGSSVKVSCKASGGPFRSYAISWVRQAPGQGPEWMGGIIPIFGTTKYAPKFQGRVTITADDFAGTVYMELSSLRSEDTAMYYCAKHMGAQVRETMDVWGKGTTVTVSS VL: QSVLTQPPSVSAAPGQKVTISCSGSSSNIGNDYVSWYQQLPGTAPKLLIYDNNKRPSGIPDRFSGSKSGTSATLGITGLQTGDEANYYCATWDRRPTAYVVFGGGTKLTVL",1600 nM,0.027 s⁻¹,,
"CR6261 scFv (wild type) (scFv, V domains shown) VH: EVQLVESGAEVKKPGSSVKVSCKASGGPFRSYAISWVRQAPGQGPEWMGGIIPIFGTTKYAPKFQGRVTITADDFAGTVYMELSSLRSEDTAMYYCAKHMGYQVRETMDVWGKGTTVTVSS VL: QSVLTQPPSVSAAPGQKVTISCSGSSSNIGNDYVSWYQQLPGTAPKLLIYDNNKRPSGIPDRFSGSKSGTSATLGITGLQTGDEANYYCATWDRRPTAYVVFGGGTKLTVL",0.34 nM,0.00012 s⁻¹,,
"CR6261 F54A scFv (scFv, V domains shown) VH: EVQLVESGAEVKKPGSSVKVSCKASGGPFRSYAISWVRQAPGQGPEWMGGIIPIAGTTKYAPKFQGRVTITADDFAGTVYMELSSLRSEDTAMYYCAKHMGYQVRETMDVWGKGTTVTVSS VL: QSVLTQPPSVSAAPGQKVTISCSGSSSNIGNDYVSWYQQLPGTAPKLLIYDNNKRPSGIPDRFSGSKSGTSATLGITGLQTGDEANYYCATWDRRPTAYVVFGGGTKLTVL",290 nM,0.0073 s⁻¹,,
"F10 CDR-H2 variant ISPIFGTA (germline CDR-H2 with Ser52 restored) scFv (scFv, V domains shown) VH: QVQLVQSGAEVKKPGSSVKVSCTSSEVTFSSFAISWVRQAPGQGLEWLGGISPIFGTANYAQKFQGRVTITADQSTRTAYMDLRSLRSEDTAVYYCARSPSYICSGGTCVFDHWGQGTLVTVSS VL: QPGLTQPPSVSKGLRQTATLTCTGNSNNVGNQGAAWLQQHQGHPPKLLSYRNNDRPSGISERFSASRSGNTASLTITGLQPEDEADYYCSTWDSSLSAVVFGGGTKLTVL",,,0.00025 s⁻¹,1.2 nM
"F10 scFv (wild type) (scFv, V domains shown) VH: QVQLVQSGAEVKKPGSSVKVSCTSSEVTFSSFAISWVRQAPGQGLEWLGGISPMFGTPNYAQKFQGRVTITADQSTRTAYMDLRSLRSEDTAVYYCARSPSYICSGGTCVFDHWGQGTLVTVSS VL: QPGLTQPPSVSKGLRQTATLTCTGNSNNVGNQGAAWLQQHQGHPPKLLSYRNNDRPSGISERFSASRSGNTASLTITGLQPEDEADYYCSTWDSSLSAVVFGGGTKLTVL",0.1 nM,3.5e-05 s⁻¹,,
"F10 Y98A scFv (scFv, V domains shown) VH: QVQLVQSGAEVKKPGSSVKVSCTSSEVTFSSFAISWVRQAPGQGLEWLGGISPMFGTPNYAQKFQGRVTITADQSTRTAYMDLRSLRSEDTAVYYCARSPSAICSGGTCVFDHWGQGTLVTVSS VL: QPGLTQPPSVSKGLRQTATLTCTGNSNNVGNQGAAWLQQHQGHPPKLLSYRNNDRPSGISERFSASRSGNTASLTITGLQPEDEADYYCSTWDSSLSAVVFGGGTKLTVL",350 nM,0.097 s⁻¹,,
"F10 CDR-H2 variant IIPMFGTA (germline CDR-H2 with Met53 restored) scFv (scFv, V domains shown) VH: QVQLVQSGAEVKKPGSSVKVSCTSSEVTFSSFAISWVRQAPGQGLEWLGGIIPMFGTANYAQKFQGRVTITADQSTRTAYMDLRSLRSEDTAVYYCARSPSYICSGGTCVFDHWGQGTLVTVSS VL: QPGLTQPPSVSKGLRQTATLTCTGNSNNVGNQGAAWLQQHQGHPPKLLSYRNNDRPSGISERFSASRSGNTASLTITGLQPEDEADYYCSTWDSSLSAVVFGGGTKLTVL",,,,270 nM
"A66 germline CDR-H2 variant (IIPIFGTA) scFv (scFv, V domains shown) VH: QVQLVQSGAEVKKPGSSVKVSCKASGGPFSMTAFTWLRQAPGQGLEWMGGIIPIFGTAKYAQKFQGRVTITADESTNTANMELTSLKSEDTAVYYCARTLSSYQPNNDAFAIWGQGTMVTVSS VL: EIVLTQSPATLSLSPGERATLSCRASQSVSSYLAWYQQKPGQAPRLLIYDASNRATGIPARFSGSGSGTDFTLTISRLEPEDFAVYFCQQYGSSPQFGQGTRLEIK",,,0.0049 s⁻¹,4.2 nM
"A66 CDR-H2 variant IIPIFRTA (germline CDR-H2 with Arg55 restored) scFv (scFv, V domains shown) VH: QVQLVQSGAEVKKPGSSVKVSCKASGGPFSMTAFTWLRQAPGQGLEWMGGIIPIFRTAKYAQKFQGRVTITADESTNTANMELTSLKSEDTAVYYCARTLSSYQPNNDAFAIWGQGTMVTVSS VL: EIVLTQSPATLSLSPGERATLSCRASQSVSSYLAWYQQKPGQAPRLLIYDASNRATGIPARFSGSGSGTDFTLTISRLEPEDFAVYFCQQYGSSPQFGQGTRLEIK",,,0.0034 s⁻¹,3.2 nM
"A66 CDR-H2 variant ISPIFGTA (germline CDR-H2 with Ser52 restored) scFv (scFv, V domains shown) VH: QVQLVQSGAEVKKPGSSVKVSCKASGGPFSMTAFTWLRQAPGQGLEWMGGISPIFGTAKYAQKFQGRVTITADESTNTANMELTSLKSEDTAVYYCARTLSSYQPNNDAFAIWGQGTMVTVSS VL: EIVLTQSPATLSLSPGERATLSCRASQSVSSYLAWYQQKPGQAPRLLIYDASNRATGIPARFSGSGSGTDFTLTISRLEPEDFAVYFCQQYGSSPQFGQGTRLEIK",,,0.00023 s⁻¹,1.1 nM
"A66 scFv (wild type) (scFv, V domains shown) VH: QVQLVQSGAEVKKPGSSVKVSCKASGGPFSMTAFTWLRQAPGQGLEWMGGISPIFRTPKYAQKFQGRVTITADESTNTANMELTSLKSEDTAVYYCARTLSSYQPNNDAFAIWGQGTMVTVSS VL: EIVLTQSPATLSLSPGERATLSCRASQSVSSYLAWYQQKPGQAPRLLIYDASNRATGIPARFSGSGSGTDFTLTISRLEPEDFAVYFCQQYGSSPQFGQGTRLEIK",,,5e-05 s⁻¹,0.11 nM
